Assay results from patent US20110135643A1 (BETH ISRAEL DEACONESS MEDICAL CENTER, published 2011).

These binders were tested against T1, human HLA-A2.1 (HLA-A*0201) class I molecule on the surface of T2 cells (human) (assay: MHC stabilization and dissociation assay on T2 cells, BB7.2 staining, flow cytometry).
T1 construct: whole, on cells; The b2m chain is added because surface class I carries it
Description: Briefly, T2 cells were cultured for 6 hours in serum-free IMDM (ATCC) prior to the addition of candidate peptides at a concentration of 50 μg/250×10³ cells/ml and incubated overnight at 37° C. […] Cells were then washed three times with PBS and analyzed by flow cytometry. […] The relative binding affinity of a given peptide was calculated as MFI_{(peptide)}/MFI_{(negative peptide)}.
T2 cells were incubated overnight with 50 μg/ml of each candidate peptide at 37° C. in serum-free Iscove's Modified Dulbecco's Medium (IMDM). Cells were then incubated with Brefeldin A (Sigma, St. Louis, Mo.) at 10 μg/ml for 1 hour, washed, and incubated at 37° C. for 0, 2, 4 or 6 hours in the presence of Brefeldin A (50 ng/ml). Cells were then stained with BB7.2 mAb. For each time point, peptide-induced HLA-A2.1 expression was calculated as the difference of the mean fluorescence of peptide-loaded T2 cells and mean fluorescence of negative peptide-loaded T2 cells. The rate of dissociation is reflected by the loss of A2.1 expression over time.

Row | Binder | binding result
1 | TLDGFVFVV (9-mer peptide of SIM2) [SIM2(87)] | binds
2 | FLDSRVTEV (9-mer peptide of SIM2) [SIM2(244)] | binds
3 | YQIVGLVAV (9-mer peptide of SIM2) [SIM2(205)] | binds
4 | SLDLKLIFL (9-mer peptide of SIM2) [SIM2(237)] | binds
5 | KLIFLDSRV (9-mer peptide of SIM2) [SIM2(241)] | binds
